The values below come from US20240409619A1.

This assay deals with SARS-COV-2 spike protein, isolate USA-WA1/2020, on pseudotyped virus (SARS-COV-2) (UniProt P0DTC2). Nature of the assay: cell-based or functional assay.

DMAb 2130_FcTM (antibody) came in with a serum potency (IC50) against USA-WA1/2020 pseudovirus of 1 to 2 ng/mL.
